Measurements taken from patent US12552850B2, “GLP-1/GIP dual agonist, long-acting conjugate thereof, and pharmaceutical composition comprising same” (HANMI PHARM. CO., LTD., priority 2020, dated 2026).
Square brackets hold non-standard residues; d marks the D form. Ends that are not written are not given here. Aib = CC(C)(N)C(=O)O

Assays:
human GLP-1 receptor = biological target: T1, human GLP-1 receptor (Homo sapiens, UniProt P43220); assay: In vitro cAMP activity in human GLP-1 receptor-expressing CHO cells (LANCE cAMP kit); type: cell-based; details: long-acting conjugates (peptide-PEG-immunoglobulin Fc); relative titer from cAMP EC50, human GLP-1 receptor CHO cells
T1 construct: expressed in transfected cells; host or cells: Chinese hamster ovary (CHO)
T1 sequence (P43220 24-463): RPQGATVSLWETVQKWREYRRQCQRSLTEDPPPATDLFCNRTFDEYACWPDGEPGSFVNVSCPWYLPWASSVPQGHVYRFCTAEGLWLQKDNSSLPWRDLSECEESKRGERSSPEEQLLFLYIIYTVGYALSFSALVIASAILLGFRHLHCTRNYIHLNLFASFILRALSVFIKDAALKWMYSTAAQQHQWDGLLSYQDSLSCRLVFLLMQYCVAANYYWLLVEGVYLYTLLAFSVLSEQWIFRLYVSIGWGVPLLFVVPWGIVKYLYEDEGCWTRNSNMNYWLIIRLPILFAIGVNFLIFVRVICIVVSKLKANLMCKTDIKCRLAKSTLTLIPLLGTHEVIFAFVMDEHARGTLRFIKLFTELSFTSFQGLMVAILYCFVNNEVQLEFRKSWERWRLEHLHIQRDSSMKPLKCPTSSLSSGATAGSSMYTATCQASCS
Procedure: (§1) In order to measure the activity of the GLP-1/GIP dual agonist prepared in Example 1, an in vitro cell activity was measured using cell lines transformed with the GLP-1 receptor and the GIP receptor, respectively. The cell lines are transformed to express human GLP-1 and human GIP receptor genes in Chinese hamster ovary (CHO), respectively, and are suitable for measuring the activities of GLP-1 and GIP. Therefore, the activity for each part was measured using each transformed cell line.
To measure the GLP-1 activity of the dual agonist prepared in Example 1, human GLP-1 was diluted from 50 nM to 0.000048 nM by 4-fold serial dilution, and the dual agonist prepared in Example 1 was diluted from 50 nM to 0.000048 nM by 4-fold serial dilution. The culture medium was removed from the cultured human GLP-1 receptor-expressing CHO cells, 5 μl of each of the serially diluted materials was added to the cells, and then 5 μl of buffer containing cAMP antibody was added to the cells, followed by 15 minutes of incubation at room temperature. Then, cells were lysed by adding 10 μl of detection mix containing cell lysis buffer, and reacted at room temperature for 90 minutes. The cell lysate after the reaction had been completed, was applied to the LANCE cAMP kit (PerkinElmer, USA) to calculate the EC50 value through the accumulated cAMP, and then compared with each other.
(§2) In order to measure the activity of the long-acting conjugate of SEQ ID NOs: 20, 36, and 40 prepared in Example 3, the cell activity in vitro was measured using cell lines transformed with the GLP-1 receptor and the GIP receptor, respectively, in the same manner as in Example 2.
(§3) The cell lines were transformed to express the human GLP-1 receptor and the human GIP receptor genes in Chinese hamster ovary (CHO), respectively, and were each the same cell line used in Example 2. Activity for each part was measured using each transformed cell line. […]

human GIP receptor = biological target: T2, human GIP receptor (Homo sapiens, UniProt P48546); assay: In vitro cAMP activity in human GIP receptor-expressing CHO cells (LANCE cAMP kit); type: cell-based; details: long-acting conjugates (peptide-PEG-immunoglobulin Fc); relative titer from cAMP EC50, human GIP receptor CHO cells
T2 construct: expressed in transfected cells; host or cells: Chinese hamster ovary (CHO)
T2 sequence (P48546 22-466): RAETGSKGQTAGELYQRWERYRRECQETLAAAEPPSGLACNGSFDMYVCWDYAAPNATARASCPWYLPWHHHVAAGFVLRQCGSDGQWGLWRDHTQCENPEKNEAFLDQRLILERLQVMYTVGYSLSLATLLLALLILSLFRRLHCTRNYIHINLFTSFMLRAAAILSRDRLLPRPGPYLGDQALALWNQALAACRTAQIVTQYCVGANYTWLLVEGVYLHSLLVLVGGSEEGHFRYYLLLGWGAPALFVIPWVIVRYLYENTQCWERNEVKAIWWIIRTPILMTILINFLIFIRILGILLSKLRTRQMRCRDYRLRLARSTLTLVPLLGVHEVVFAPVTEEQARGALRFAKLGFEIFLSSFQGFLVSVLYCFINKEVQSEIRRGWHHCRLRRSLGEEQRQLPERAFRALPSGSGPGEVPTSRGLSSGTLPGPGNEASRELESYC
Procedure: as §1
To measure the GIP activity of the dual agonist prepared in Example 1, human GIP was diluted from 50 nM to […] by 4-fold serial dilution, and the dual agonist prepared in Example 1 was diluted from 50 nM to 0.000048 nM by 4-fold serial dilution. The culture medium was removed from the cultured human GIP receptor-expressing CHO cells, 5 μl of each of the serially diluted materials was added to the cells, and then 5 μl of buffer containing cAMP antibody was added to the cells, followed by 15 minutes of incubation at room temperature. Then, cells were lysed by adding 10 μl of detection mix containing cell lysis buffer, and reacted at room temperature for 90 minutes. The cell lysate after the reaction had been completed, was applied to the LANCE cAMP kit (PerkinElmer, USA) to calculate the EC50 value through the accumulated cAMP, and then compared with each other.
as §2, §3

| Substance | In vitro activity compared to native peptide (%) vs human GLP-1 (human GLP-1 receptor) | In vitro activity compared to native peptide (%) vs human GIP (human GIP receptor) |
| --- | --- | --- |
| 36 (Y[Aib]EGTFTSDYSI[Aib]LDKQAQQAFVQWLIAGGPSSGAPPPSC) [compound 36] | 3.9% | 26.9% |
| 20 (Y[Aib]EGTFTSDYSI[Aib]LDKQAA[Aib]AFVQWLIAGGPSSGAPPPSC) [compound 20] | 7.5% | 62.1% |
| 40 (Y[Aib]EGTFTSDYSIALEKQAQRDFVNWLLAGGPSSGAPPPSC) [compound 40] | 10.1% | 24.7% |
